Data reported in patent US11485769B2, “Peptides and combination of peptides for use in immunotherapy and methods for generating scaffolds for the use against pancreatic cancer and other cancers” (Immatics Biotechnologies GmbH, priority 2015, dated 2022).

Target: HLA-A*02:01 (Homo sapiens, UniProt P04439, D140Y/D185E/D98H/E176V/E277Q/G131W/G231S/I119V/I121R/I166T/I218V/L300P/L318F/N151K/N90K/P208A/P217A/Q86G/Q94H/R138H/R169H/T345S)
Assay: MHC binding assay (UV-ligand exchange, beta2m ELISA, peptide exchange yield)
Conditions: binding to HLA-A*02:01 ranged by peptide exchange yield, β2m ELISA
From the text: Candidate peptides for T cell based therapies according to the present invention were further tested for their MHC binding capacity (affinity). The individual peptide-MHC complexes were produced by UV-ligand exchange, where a UV-sensitive peptide is cleaved upon UV-irradiation, and exchanged with the peptide of interest as analyzed. Only peptide candidates that can effectively bind and stabilize the peptide-receptive MHC molecules prevent dissociation of the MHC complexes. To determine the yield of the exchange reaction, an ELISA was performed based on the detection of the light chain (β2m) of stabilized MHC complexes. The assay was performed as generally described in Rodenko et al. (Rodenko et al., 2006).
96 well MAXISorp plates (NUNC) were coated over night with 2 ug/ml streptavidin in PBS at room temperature, washed 4× and blocked for 1 h at 37° C. in 2% BSA containing blocking buffer. Refolded HLA-A*02:01/MLA-001 monomers served as standards, covering the range of 15-500 ng/ml. Peptide-MHC monomers of the UV-exchange reaction were diluted 100 fold in blocking buffer. Samples were incubated for 1 h at 37° C., washed four times, incubated with 2 ug/ml HRP conjugated anti-μ2m for 1h at 37° C., washed again and detected with TMB solution that is stopped with […]. Absorption was measured at 450 nm. Candidate peptides that show a high exchange yield (preferably higher than 50%, most preferred higher than 75%) are generally preferred for a generation and production of antibodies or fragments thereof, and/or T cell receptors or fragments thereof, as they show sufficient avidity to the MHC molecules and prevent dissociation of the MHC complexes.
MHC class I binding scores. Binding of HLA-class I restricted peptides to HLA-A*02:01 was ranged by peptide exchange yield: ≥10%=+; ≥20%=++; ≥50=+++; >75%=++++

| Peptide exchange (MHC class I binding score) | Substance |
| --- | --- |
| “++” (≥20%=++) | 1 (FVDTRTLL; listed as Homo sapiens) [compound 1] |
| “+++” (≥50=+++) | 2 (FGYDGDFYRA; listed as Homo sapiens) [compound 2] |
| “+++” (≥50=+++) | 3 (ILIGETIKI; listed as Homo sapiens) [compound 3] |
| “+++” (≥50=+++) | 4 (ALDPAAQAFLL; listed as Homo sapiens) [compound 4] |
| “+++” (≥50=+++) | 5 (ALLTGIISKA; listed as Homo sapiens) [compound 5] |
| “+++” (≥50=+++) | 6 (ALTGIPLPLI; listed as Homo sapiens) [compound 6] |
| “+++” (≥50=+++) | 7 (ALVDIVRSL; listed as Homo sapiens) [compound 7] |
| “+++” (≥50=+++) | 8 (ALYTGSALDFV; listed as Homo sapiens) [compound 8] |
| “++” (≥20%=++) | 9 (QIIDAINKV; listed as Homo sapiens) [compound 9] |
| “++” (≥20%=++) | 10 (VLLDKIKNL; listed as Homo sapiens) [compound 10] |
| “++” (≥20%=++) | 11 (ALYYNPHLL; listed as Homo sapiens) [compound 11] |
| “+++” (≥50=+++) | 12 (AQYKFVYQV; listed as Homo sapiens) [compound 12] |
| “++” (≥20%=++) | 13 (FIDSSNPGL; listed as Homo sapiens) [compound 13] |
| “+++” (≥50=+++) | 14 (FIIDNPQDLKV; listed as Homo sapiens) [compound 14] |
| “+++” (≥50=+++) | 15 (FILANEHNV; listed as Homo sapiens) [compound 15] |
| “+++” (≥50=+++) | 16 (GLIDYDTGI; listed as Homo sapiens) [compound 16] |
| “+++” (≥50=+++) | 17 (GLIDYDTGIRL; listed as Homo sapiens) [compound 17] |
| “++” (≥20%=++) | 18 (ALFVRLLAL; listed as Homo sapiens) [compound 18] |
| “+++” (≥50=+++) | 19 (ALWHDAENQTVV; listed as Homo sapiens) [compound 19] |
| “+++” (≥50=+++) | 20 (GLIDIENPNRV; listed as Homo sapiens) [compound 20] |
| “+++” (≥50=+++) | 21 (GLVDGRDLVIV; listed as Homo sapiens) [compound 21] |
| “+++” (≥50=+++) | 22 (ILSTEIFGV; listed as Homo sapiens) [compound 22] |
| “++” (≥20%=++) | 23 (KLDSSGGAVQL; listed as Homo sapiens) [compound 23] |

| Peptide exchange (MHC class I binding score) | Substance |
| --- | --- |
| “++” (≥20%=++) | 24 (KLSENAGIQSL; listed as Homo sapiens) [compound 24] |
| “++” (≥20%=++) | 25 (LINPNIATV; listed as Homo sapiens) [compound 25] |
| “+++” (≥50=+++) | 26 (SLYTALTEA; listed as Homo sapiens) [compound 26] |
| “+++” (≥50=+++) | 27 (TLLAHPVTL; listed as Homo sapiens) [compound 27] |
| “+++” (≥50=+++) | 28 (VLDEFYSSL; listed as Homo sapiens) [compound 28] |
| “++++” (>75%=++++) | 29 (YILPFSEVL; listed as Homo sapiens) [compound 29] |
| “++” (≥20%=++) | 30 (YIYKDTIQV; listed as Homo sapiens) [compound 30] |
| “+++” (≥50=+++) | 31 (YLDSMYIML; listed as Homo sapiens) [compound 31] |
| “++” (≥20%=++) | 32 (YVDDGLISL; listed as Homo sapiens) [compound 32] |
| “++” (≥20%=++) | 34 (FLEDDDIAAV; listed as Homo sapiens) [compound 34] |
| “+++” (≥50=+++) | 35 (FLFPSQYVDV; listed as Homo sapiens) [compound 35] |
| “++” (≥20%=++) | 36 (FLGDLSHLL; listed as Homo sapiens) [compound 36] |
| “++” (≥20%=++) | 37 (FLNPDEVHAI; listed as Homo sapiens) [compound 37] |
| “+++” (≥50=+++) | 38 (FLTEAALGDA; listed as Homo sapiens) [compound 38] |
| “++” (≥20%=++) | 39 (FLTPSIFII; listed as Homo sapiens) [compound 39] |
| “++” (≥20%=++) | 40 (GLAPQIHDL; listed as Homo sapiens) [compound 40] |
| “++” (≥20%=++) | 41 (GLLAGNEKLTM; listed as Homo sapiens) [compound 41] |
| “+++” (≥50=+++) | 42 (ILSDMRSQYEV; listed as Homo sapiens) [compound 42] |
| “++” (≥20%=++) | 43 (HLGVKVFSV; listed as Homo sapiens) [compound 43] |
| “+++” (≥50=+++) | 44 (ILAQVGFSV; listed as Homo sapiens) [compound 44] |
| “+++” (≥50=+++) | 45 (ILYSDDGQKWTV; listed as Homo sapiens) [compound 45] |
| “+++” (≥50=+++) | 46 (TMVEHNYYV; listed as Homo sapiens) [compound 46] |
| “+++” (≥50=+++) | 47 (LIYKDLVSV; listed as Homo sapiens) [compound 47] |

| Peptide exchange (MHC class I binding score) | Substance |
| --- | --- |
| “+++” (≥50=+++) | 48 (LLDENGVLKL; listed as Homo sapiens) [compound 48] |
| “++” (≥20%=++) | 49 (LLDGFPRTV; listed as Homo sapiens) [compound 49] |
| “+++” (≥50=+++) | 50 (LLFGSDGYYV; listed as Homo sapiens) [compound 50] |
| “++” (≥20%=++) | 51 (LLGPAGARA; listed as Homo sapiens) [compound 51] |
| “+++” (≥50=+++) | 52 (LLSDPIPEV; listed as Homo sapiens) [compound 52] |
| “+++” (≥50=+++) | 53 (LLWDPSTGKQV; listed as Homo sapiens) [compound 53] |
| “+++” (≥50=+++) | 54 (LTQPGPIASA; listed as Homo sapiens) [compound 54] |
| “++” (≥20%=++) | 55 (NLAPAPLNA; listed as Homo sapiens) [compound 55] |
| “++” (≥20%=++) | 56 (NLIGVTAEL; listed as Homo sapiens) [compound 56] |
| “+++” (≥50=+++) | 57 (RLSELGITQA; listed as Homo sapiens) [compound 57] |
| “++” (≥20%=++) | 58 (RQYPWGVVQV; listed as Homo sapiens) [compound 58] |
| “+++” (≥50=+++) | 59 (SLSESFFMV; listed as Homo sapiens) [compound 59] |
| “++++” (>75%=++++) | 60 (SLWEDYPHV; listed as Homo sapiens) [compound 60] |
| “++” (≥20%=++) | 61 (SMYDGLLQA; listed as Homo sapiens) [compound 61] |
| “+” (≥10%=+) | 62 (SVFPGARLL; listed as Homo sapiens) [compound 62] |
| “++++” (>75%=++++) | 63 (SVTGIIVGV; listed as Homo sapiens) [compound 63] |
| “++++” (>75%=++++) | 64 (TLFSEPKFAQV; listed as Homo sapiens) [compound 64] |
| “+++” (≥50=+++) | 65 (TLNEKLTAL; listed as Homo sapiens) [compound 65] |
| “++++” (>75%=++++) | 67 (VIWGTDVNV; listed as Homo sapiens) [compound 67] |
| “+++” (≥50=+++) | 68 (VLFDVTGQV; listed as Homo sapiens) [compound 68] |
| “+++” (≥50=+++) | 69 (VLFSGSLRL; listed as Homo sapiens) [compound 69] |
